Data reported in publication PMC10104517.

B1: High-GC ssRNA (ssRNA)
RNA: GCUUUGCAGCCGCGGCUCGGUUUAG
B2: ssDNA (ssDNA)
DNA: TTGACGAGGAAGTGTCTGTT
B3: dsRNA (dsRNA)
RNA 1: GCUUUGAUUUCGUGCAUCUAUGGAG
RNA 2: CUCCAUAGAUGCACGAAAUCAAAGC
B4: dsDNA (dsDNA)
DNA 1: TTGACGAGGAAGTGTCTGTT
DNA 2: AACAGACACTTCCTCGTCAA
B5: ssRNA (ssRNA)
RNA: GCUUUGAUUUCGUGCAUCUAUGGAG

Tests used:
pI73R [1] = biological target: T1, pI73R (African swine fever virus (ASFV-GZ, …, UniProt A0A2X0RU36 1-72)); assay: EMSA
pI73R [2] = biological target: T1, pI73R; assay: BLI

Row | Binder | binding result (pI73R [1]) | Kd (pI73R [2]) [nM]
1 | B1 | binds | –
2 | B2 | – | 113
3 | B3 | – | 70
4 | B4 | – | 100
5 | B5 | – | 37.5
